40 sequences from the nanobody polyreactivity screen of Harvey et al. (2022) can be followed below.

This series is described as follows: yeast display, Sf9 membrane polyspecificity reagent, FACS + sequencing; frameworks hold sequencing errors. A digest of the protocol: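 After 36–48 hours of galactose induction, yeast (Saccharomyces cerevisiae BJ5465) displaying a synthetic nanobody library were stained at 4 °C for 1 hour with 10% biotinylated, detergent-solubilized Sf9 membrane reagent. Streptavidin microbeads enriched the stained cells before FACS sorting into low and high (top ~1%) gates on anti-HA and streptavidin fluorescence. Each clone's polyreactivity label reflects its gate of origin.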
Consider “QVQLVESGGGLVQAGGSLRLSCAASGRILWSYAMGWYRQAPGKEREFVATINRSGGNTHYADSVKGRFTISRDNAKNTVYLQMNSLKPEDTAVYYCAARNLVPYGYQGLRYYYWGQGTQVTVSS”, for which the “polyreactivity (PSR sort gate)” value was “high polyreactivity”. As to “QVQLVESGGGLVQAGGSLRLSCAASGRILYIYAMGWYRQAPGKERELVASISWTDGSTYYADSVKGRFTISRDNAKNTVYLQMNSLKPEDTAVYYCNAAYYYYWDLKKYNYWGQGTQVTVSS”, the “polyreactivity (PSR sort gate)” value was “low polyreactivity”. Consider “QVQLVESGGGLVQAGGSLRLSCAASGRILYIYAMGWYRQAPGKERELVASISWTDGSTYYADSVKGRFTISRDNAKNTVYLQMNSLKPEDTAVYYCNAAYYYYWELKKYNYWGPGTQVTVSS”, for which the “polyreactivity (PSR sort gate)” value is “low polyreactivity”. To “QVQLVESGGGLVQAGGSLRLSCAASGRILYNYAMGWYRQAPGKERELVAAISSGGSTNYADSVKGRFTISRDNAKNTVYLQMNSLKPEDTAVYYCAAYRGHSWRGLYRWSDYDYWGQGTQVTVSS” belongs “low polyreactivity”; to “QVQLVESGGGLVQAGGSLRLSCAASGRILYRNTMGWYRQAPGKERELVAAISRSGGSTYYADSVKGRFTISRDNAKNTVYLQMNSLKPEDTAVYYCAKSVVARGASTYIGGFYYWGQGTQVTVSS”, “high polyreactivity”; to “QVQLVESGGGLVQAGGSLRLSCAASGRILYYYAMGWYRQAPGKERELVAAISWSGGSTYYADSVKGRFTISRDNAKNTVYLQMNSLKPEDTAVYYCAADWRGYRLERAYDYWGQGTQVTVSS”, “low polyreactivity”. “QVQLVESGGGLVQAGGSLRLSCAASGRILYYYDMGWYRQAPGKERELVARIGGTYYADSVKGRFTISRDNAKNTVYLQMNSLKPEDTAVYYCAAEYGYDFFRSYQEYGYWGQGTQVTVSS”: the “polyreactivity (PSR sort gate)” value is “low polyreactivity”.

For the sequence “QVQLVESGGGLVQAGGSLRLSCAASGRIQYNAMGWYRQAPGKEREFVAAISWSGGTTYYADSVKGRFTISRDNAKNTVYLQMNSLKPEDTAVYYCATPYTHWGQGTQVTVSS”, the “polyreactivity (PSR sort gate)” value was “high polyreactivity”. In the case of “QVQLVESGGGLVQAGGSLRLSCAASGRISGLYAMGWYRQAPGKERELVAAITTSADRTYYADSVKGRFTISRDNAKNTVYLQMNSLKPEDTAVYYCAADSSRPRMYYWGQGTQVTVSS”, the “polyreactivity (PSR sort gate)” value is “low polyreactivity”. The same measure for “QVQLVESGGGLVQAGGSLRLSCAASGRISGWYAMGWYRQAPGKERELVASISSSGGSTYYADSVEGRFTISRDNAKNTVYFQMNSLKPEDTAVYYCAVRRYNWSFYRGYDYWGQGTQVTVSS”: “high polyreactivity”; for “QVQLVESGGGLVQAGGSLRLSCAASGRISGYAMGWDRQAPGKERELVAAISTRGGTTYYADSVKGRFTISRDNAKNTVQLQMNSLKPEDTAVYYCNAASSRWPEYDYWGQGTQVTVSS”: “high polyreactivity”. Regarding “QVQLVESGGGLVQAGGSLRLSCAASGRISHRNAMGWYRQAPGKERELVAAITSGGSTNYADSVKGRFTISRDNAKNTVYLQMNSLKPEDTAVYYCTTTTYHWYYYRWEIFDYWGQGTQVTVSS”, the “polyreactivity (PSR sort gate)” value was “low polyreactivity”. To “QVQLVESGGGLVQAGGSLRLSCAASGRISPNNVMGWYRQAPGKERELVAVISRSGDRTNYADSVKGRFTISRDNAKNTVYLQMNSLKPEDTAVYYCAARVVADKYRYDYWGQGTQVTVSS” belongs “high polyreactivity”. The same measure for “QVQLVESGGGLVQAGGSLRLSCAASGRISQGYAMGWYRQAPGKERELVAGISRSGGSTYYADSVKGRFTISRDNAKNTVYLQMNSLKPEDTAVYYCAARVRGRNASDYDYYYWGQGSQVTVSS”: “high polyreactivity”. Take “QVQLVESGGGLVQAGGSLRLSCAASGRISRVYVMGWYRQAPGKERELVAAISFRGGSTFYADSVKGRFTISRDNAKNTVYLQMNSLKPEDTAVYYCAATVYPLAYDYWGQGTQVTVSS”: the “polyreactivity (PSR sort gate)” value is listed as “high polyreactivity”. To “QVQLVESGGGLVQAGGSLRLSCAASGRISSGYAMGWYRQAPGKERELVAAISSIGGRTYYADSVKGRFTISRDNAKNTVYLQMNSLKPEDTAVYYCNTYPYIQRTWWYDYWGQGTQVTVSS” belongs “high polyreactivity”; to “QVQLVESGGGLVQAGGSLRLSCAASGRISTFYAMGWYRQAPGKERELVAGIRWRGGSTYYADSVKGRFTISRDNAKNTVYLQMNSLKPEDTAVYYCNAVPRRRRYSRLGYWGQGTQVTVSS”, “high polyreactivity”; to “QVQLVESGGGLVQAGGSLRLSCAASGRISTTNAMGWYRQAPGKERELVASITSGGGTNYADSVKGRFTISRDNAKNTVYLQMNCLKPEDTAVYYCAKRRSYFLHSYYSYGYWGQGTQVTVSS”, “high polyreactivity”. Take “QVQLVESGGGLVQAGGSLRLSCAASGRISTYNAMGWYIQAPGKERELVASITGGGSTNYADSVKGRFTISRDNAKNTVYLQMNSLKPEDTAVYYCNAKARGQRGYRKIYGYDYWGQGTQVTVSS”: the “polyreactivity (PSR sort gate)” value is given as “high polyreactivity”. The same measure for “QVQLVESGGGLVQAGGSLRLSCAASGRISVFNAMGWYRQAPGKDRELVAAITNGGSTNYADSVKVRFTISRDNAKNTVYLLMNSLKPEDTAVYDCAASVGTYAYGRTVYRYDYWGQGTQVTVSS”: “low polyreactivity”; for “QVQLVESGGGLVQAGGSLRLSCAASGRISVFNAMGWYRQAPGKERELVATITDGGSTYYADSVKGRFTISRDNAKNTVYLQMNSLKPEDTAVYYCAKKQVTTDVSSETFVLEMDYWGQGTQVTVSS”: “low polyreactivity”; for “QVQLVESGGGLVQAGGSLRLSCAASGRISVFYAMGWYRQAPGKERELVAAITRSGTTKYADSVKGRFTISRDNAKNTVYLQMNSLKPEDTAVYYCAADSSRFFYGVYNYRQYGYWGQGSQVTVSS”: “high polyreactivity”. To “QVQLVESGGGLVQAGGSLRLSCAASGRISVVNAMGWYRQAPGKERELVATINRGGSTYADSVKGRFTISRDNAKNTVYLQMNSLKPEDTAVYYCAATSFSVRFTRYYYWGQGTQVTVSS” belongs “high polyreactivity”. With “QVQLVESGGGLVQAGGSLRLSCAASGRISYRNAMGWYRQAPGKERELVATITNGGSTYYADSVKGRFTISRDNAKNTVYLQMNSLKPEDTAVYYCAKEVWNWGPYYYWGQGTQVTVSS”, the “polyreactivity (PSR sort gate)” value was “low polyreactivity”. Take “QVQLVESGGGLVQAGGSLRLSCAASGRITFSHNTMGGSRQAPGKERELVAAISSGGRTNYADSVKGRFTISRDNAKNTVYLQMNSLKPEDTAVYYCARESHYDFIYDGMDYWGQGTQVTVSS”: the “polyreactivity (PSR sort gate)” value was “low polyreactivity”. Take “QVQLVESGGGLVQAGGSLRLSCAASGRIVCYYDMGWSRQAHGKERELVATITFGGGSTYYADSVKGRFTISRDNAKNTVYLQMNSLKPEDTAVYYCAADSGYLGIYGDEYSSGQGTQVTVSS”: the “polyreactivity (PSR sort gate)” value was “low polyreactivity”. For the sequence “QVQLVESGGGLVQAGGSLRLSCAASGRIVGYAMGWYRQAPGKERELVAAITGSTGSTYYADSVKGRFTISRDNAKNTVYLQMNSLKPEDTAVYYCATKYGRYVYYNHVTWMYYWGQGTQVTVSS”, the “polyreactivity (PSR sort gate)” value is listed as “high polyreactivity”. On to “QVQLVESGGGLVQAGGSLRLSCAASGRIVHQYAMGWNRQAPGKERELVAAITTRGTSTYYADSVKGRFTISRDNAKNTVYLQMNSLKPEDTAVYYCAAKFFGSVGHVAGDYWGQGTLVTVSS”, for which the “polyreactivity (PSR sort gate)” value was “high polyreactivity”. The same measure for “QVQLVESGGGLVQAGGSLRLSCAASGRIVRYYTMGWYRQAPGKEREFVAAITLSGGRTYYADSVKGRFTISRDNAKNTVYLQMNSLKPEDTAVYYCAKRYVWGDKRYWQGYDYWGQGTQVSVSS”: “high polyreactivity”; for “QVQLVESGGGLVQAGGSLRLSCAASGRIVSKYALGWYRQAPGKERELVAAISNGGSTNYADSVKGRFTISRDNAKNTVYLQMNSRKPEDTAVYYCAAGWPARYEEGYNYWGQGTQVTVST”: “low polyreactivity”; for “QVQLVESGGGLVQAGGSLRLSCAASGRIVSRYAMGCYRQAPGKERELVADISSSGGSTYYADSVKGRFTISRDNAKNTVYLQMNSMKPEDTAVYDCAVRKKRQYTGDYWGQGTQETVSS”: “high polyreactivity”. Turning to “QVQLVESGGGLVQAGGSLRLSCAASGRIVTDSAMGWYSQAPGKDREFVAAIRRSGGSTYYAGCVKGRCTISRDTANNTVYLQMNSLKPEDTAVYYCAARGATSYYIFHSWGQGTQVTVSS”, the “polyreactivity (PSR sort gate)” value is given as “high polyreactivity”.

On to “QVQLVESGGGLVQAGGSLRLSCAASGRIVVGYVMGWYRQSPGKERELVADIRSRGDSTYYADSVKGRFTISRDNAKNTVYLQMNSLKPEDTAVYYCNVLGYSYWGQGTQVTVSS”, for which the “polyreactivity (PSR sort gate)” value is reported as “high polyreactivity”. In the case of “QVQLVESGGGLVQAGGSLRLSCAASGRIVVYNVMGGYRQAPGKERELVAAISWGTGSTYADSVKGRFTISRDNAKNTVYIQMNSLKPEDTAVYYCAADSFIPPYDHWGQGTQVTVSS”, the “polyreactivity (PSR sort gate)” value is given as “low polyreactivity”.

Turning to “QVQLVESGGGLVQAGGSLRLSCAASGRIVWFYTMGWYRQAPGKERELVAAISDSAGSTYYADSVKGRFTISRDNAKNTVYLQMNSLKPEDTAVYYCAADGWWQYDYWGQGTQVTVSS”, the “polyreactivity (PSR sort gate)” value is given as “low polyreactivity”. In the case of “QVQLVESGGGLVQAGGSLRLSCAASGRIYCGYTMGWYRPAPGKERELDATITGNGAITRYADSVKGRFTISRDNAKYTVYLQMTSLKPEDTAVYYCAADSGREPKGPFRLTYWGQGTQVTVSS”, the “polyreactivity (PSR sort gate)” value is “high polyreactivity”. To “QVQLVESGGGLVQAGGSLRLSCAASGRIYDDNAMGWYRQAPGKERELVAAISSGDSTKYADSVKGRFTISRDNAKNTVYLQMNSLKPDDTAVYSCAAERNHGLVGSESVGRNDYWGPGTQVTVSS” belongs “low polyreactivity”; to “QVQLVESGGGLVQAGGSLRLSCAASGRIYDYMAWYRQAPGKERELVAAISWRGGRTYYADSVKGRFTISRDNAKNTVYLQMNSLKPEDTAVYYCAAKTTYRYGYWGQGSQVTVSS”, “high polyreactivity”.

In the case of “QVQLVESGGGLVQAGGSLRLSCAASGRIYDYYTMGWYRQAPGKERELVAAITWIGGSTYYADSVKGRFTISRDNAKNTVYLQMNSLKPEDTAVYYWNAEGTALPYRADTVGGYYYWGQGTQVTVSS”, the “polyreactivity (PSR sort gate)” value is recorded as “low polyreactivity”. “QVQLVESGGGLVQAGGSLRLSCAASGRIYGGYAMGWYRQAPGKERELVAAISSRGGSTYYADSVKGRFTISRDNAKNTVYFQMNSLKPEDTAVYYFADDGRVKGWGQGTQVTVSS”: the “polyreactivity (PSR sort gate)” value is recorded as “high polyreactivity”.
